Experiment [1] addresses T1, human Dectin-1 isoform A on HEK-Blue hDectin-1a cells (human, UniProt Q9BXN2 1-247).
T1 sequence: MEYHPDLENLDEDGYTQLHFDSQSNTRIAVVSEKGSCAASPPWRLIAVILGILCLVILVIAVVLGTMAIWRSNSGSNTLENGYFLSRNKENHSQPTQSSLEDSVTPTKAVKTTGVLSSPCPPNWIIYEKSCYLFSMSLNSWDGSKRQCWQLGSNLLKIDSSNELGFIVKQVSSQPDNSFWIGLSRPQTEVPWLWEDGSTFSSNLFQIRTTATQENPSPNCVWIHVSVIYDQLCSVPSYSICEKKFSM
The experiment can be described thus: cell-based or functional assay.

The target of experiment [2] is T2, human Trop-2 expressed on cells (A-431, NCI-N87, SKBR3, CHO-K1-hTrop2) (human, UniProt P09758 27-323).
T2 sequence: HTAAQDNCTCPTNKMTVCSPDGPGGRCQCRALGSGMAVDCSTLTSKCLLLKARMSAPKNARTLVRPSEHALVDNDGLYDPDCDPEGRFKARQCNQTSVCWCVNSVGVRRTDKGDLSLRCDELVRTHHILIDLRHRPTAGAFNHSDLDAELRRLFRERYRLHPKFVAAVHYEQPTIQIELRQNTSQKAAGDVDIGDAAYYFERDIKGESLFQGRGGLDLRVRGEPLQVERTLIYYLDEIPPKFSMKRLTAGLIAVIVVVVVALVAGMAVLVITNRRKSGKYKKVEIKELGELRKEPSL
Nature of the experiment: cell-based or functional assay.

Experiment [3] concerns the target T2, human Trop-2 expressed on cells (A-431, …). The experiment can be described thus: flow cytometry on A-431 cells, fluorescent anti-human secondary antibody. As to the method:
(§1) FIGS. 2A-2D show binding assays in which cells expressing human Trop-2 were incubated with anti-Dectin-1 x anti-Trop-2 bispecific antibodies with human IgG1 Fc (as indicated) or isotype control, and binding was measured by flow cytometry using a fluorescently labeled anti-human secondary antibody. Shown are binding of the indicated antibodies to human epidermoid carcinoma A-431 cells (FIG. 2A), human gastric carcinoma NCI-N87 cells (FIG. 2B), human breast cancer SKBR3 cells (FIG. 2C), or CHO-K1 cells expressing human Trop-2 (FIG. 2D).
(§2) Human cancer cell lines and CHO cells expressing human Trop-2 (CHO-K1-hTrop2 cells) were incubated with the anti-Dectin-1 x anti-Trop-2 bispecific antibodies, Trop-2 clones 15, 45, 76, 77, 63, 64, 65 and 123, or the hIgG1 isotype, followed by a fluorescent anti-human secondary antibody. The primary antibodies were used in an 8-point serial dose titration starting at 300 or 100 nM and diluted 1 to 3.
For orientation: In flow cytometry, cells or beads pass a laser one at a time.

The target is the same in experiment [4]. The experiment can be described thus: flow cytometry on SKBR3 cells, fluorescent anti-human secondary antibody. The method, then: as §1, §2
The target is the same in experiment [5]. Nature of the experiment: flow cytometry on NCI-N87 cells, fluorescent anti-human secondary antibody. As to the method:
as §1, §2

Experiment [6] shares this target. Nature of the experiment: flow cytometry on CHO-K1-hTrop2 cells, fluorescent anti-human secondary antibody. As to the method: as §1, §2
The target in another experiment is T3, Human Trop-2 ECD protein (human, UniProt P09758 27-274).
T3 construct: also called hTrop-2 ECD; not shown: HIS tag (captured on the biosensor via anti-HIS Tag)
T3 sequence: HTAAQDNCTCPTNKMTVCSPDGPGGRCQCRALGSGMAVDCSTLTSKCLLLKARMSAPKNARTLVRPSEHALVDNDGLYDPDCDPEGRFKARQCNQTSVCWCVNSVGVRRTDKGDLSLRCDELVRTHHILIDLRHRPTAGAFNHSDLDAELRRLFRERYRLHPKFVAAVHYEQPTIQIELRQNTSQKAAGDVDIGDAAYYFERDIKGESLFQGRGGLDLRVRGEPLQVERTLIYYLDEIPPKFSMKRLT
Nature of the experiment: BLI, hTrop-2 ECD captured via anti-HIS Tag, bispecific antibody in solution (monovalent). The method, then:
Monovalent binding affinity was measured by biosensor (BLI). Human Trop-2 ECD protein was captured on biosensor via anti-HIS Tag. On and off rate binding was measured against bispecific antibodies with 1 arm binding to hTrop2 at varying concentrations. On rate and off rate measurements were fitted to generated KD values.
Monovalent binding affinity of each anti-Dectin-1 x anti-Trop-2 bispecific antibody to the human Trop-2 ECD was also measured by biosensor (BLI).
(Biolayer interferometry detects binding as a change in optical thickness at a sensor tip.)

For experiment [7], the target named is T1, human Dectin-1 isoform A on HEK-Blue …. Nature of the experiment: cell-based or functional assay. This is another data set of the same source.
Experiment [8] concerns the target T2, human Trop-2 expressed on cells (A-431, …). Nature of the experiment: flow cytometry on CHO-K1 cells expressing hTrop-2 (sheet title: Binding to Chok1 hTrop2).
Experiment [9] has as its target T1, human Dectin-1 isoform A on HEK-Blue …. The experiment can be described thus: flow cytometry on HEK cells expressing hDectin-1 (sheet title: Binding to HEK Blue Dectin 1a cells).

Where a chain is given by its changes, count along the chain named.

Broadly, the EC50 is the concentration needed to bring the measured effect to its halfway point. The term Kd denotes the constant that tells how readily two partners part at equilibrium. In general, koff refers to the first-order rate constant of dissociation. What is called kon is a measure of how fast the partners come together. As usually defined, the EC50 (read off the curve) is the concentration needed to bring the measured effect to its halfway point. Low readings indicate an effect from little substance, high ones a need for much substance.

B1: 2M24 × Trop-2 clone A hG1 (bispecific antibody, V domains shown)
VH 1: QVQLVQSGAEVKKPGASVKVSCKSSGYTFTDYYIHWVRQAPGQGLEWMGWINPNSGDTNYAQKFQGRITMTRDTSISTAYLELSRLRSDDTAVFYCARNSGSYSFGYWGQGTLVTVSS
VL 1: DIQMTQSPSSVSASVGDRVTITCRASQGISSWLAWYQQKPGKAPKLLIFGASSLQSGVPSRFSGSGSGTDFTLTVSSLQPEDFATYYCQQAYSFPFTFGPGTKVDIE
VH 2: QVQLQQSGSELKKPGASVKVSCKASGYTFTNYGMNWVKQAPGQGLKWMGWINTYTGEPTYTDDFKGRFAFSLDTSVSTAYLQISSLKADDTAVYFCARGGFGSSYWYFDVWGQGSLVTVSS
VL 2: DIQLTQSPSSLSASVGDRVSITCKASQDVSIAVAWYQQKPGKAPKLLIYSASYRYTGVPDRFSGSGSGTDFTLTISSLQPEDFAVYYCQQHYITPLTFGAGTKVEIK
notes: also called anti-Dectin-1 x anti-Trop-2 bispecific antibody
Regarding B1, in experiment [1], the “Dectin-1 pathway activation (SEAP secretion), HEK-Blue hDectin-1a cells in the presence of A-431 cells, EC50” value worked out at 0.05 mg/L; the “Dectin-1 pathway activation (SEAP secretion), HEK-Blue hDectin-1a cells in the presence of CHO-K1-hTrop2 cells, EC50” value is 0.06 mg/L; the “Dectin-1 pathway activation (SEAP secretion), HEK-Blue hDectin-1a cells in the presence of NCI-N87 cells, EC50” value is 0.04 mg/L; the “Dectin-1 pathway activation (SEAP secretion), HEK-Blue hDectin-1a cells in the presence of SKBR3 cells, EC50” value turned out to be 0.04 mg/L. In addition, in experiment [2], the “Induction of phagocytosis in vitro of A-431 cells by human macrophages, EC50” value is 0.31 nM; the “Induction of phagocytosis in vitro of NCI-N87 cells by human macrophages, EC50” value was found to be 0.2 nM; the “Induction of phagocytosis in vitro of SKBR3 cells by human macrophages, EC50” value is 0.507 nM. Besides, in experiment [3], the concentration for a half-maximal effect (EC50) was 6.12 nM. In addition, the response in experiment [4] was half-maximal at 18.5 nM (EC50). In addition, the EC50 in experiment [5] is 11.7 nM. Further, a half-maximal response in experiment [6] (EC50) required 3.78 nM. Moreover, in the experiment with Human Trop-2 ECD protein, the Kd is 4.12 nM, the off-rate constant (koff) was 0.000891 s⁻¹ and the kon was 217000 M⁻¹ s⁻¹.

B2: Dectin-1 2M24.124 x Trop-2 clone A hIgG1 (bispecific antibody)
anti-Dectin-1 heavy chain: B1 VH 1 with S24A, I34M, S55E, Q65E, L81M, F94Y, S100T, S102A, Q110C
anti-Dectin-1 light chain: B1 VL 1 with A43C, F49Y, S53D, V75I, S93G, E107K
anti-Trop-2 heavy chain: B1 VH 2
anti-Trop-2 light chain: B1 VL 2
notes: member of group m9; also called 2M24.124xTrop-2 clone A hG1; disulfide-engineered Fab-format bispecific, clone A
For the molecule B2, in experiment [7], the “EC50 of SEAP secretion by the hDectin-1 reporter cells (hDec1 Reporter Assay; the Trop-2-expressing cell line is not named)” value worked out at 0.62 nM. Further, the “EC50 (read off the curve)” value is approximately 5 nM in [8] and approximately 0.7 nM in experiment [9].

B3: 2M24 × Trop-2 clone C hG1 (bispecific antibody, V domains shown)
VH 1: B1 VH 1
VL 1: B1 VL 1
VH 2: QVQLVQSGSELKKPGASVKLSCKASGYTFTSYGMNWVRQAPGQGLEWMGWINTNTGNPTYAQGFTGRFVFSLDTSVSTAYLQISSLKAEDTAVYYCARGYNWNDGDFDYWGQGTLVTVSS
VL 2: AIQMTQSPSSLSPSVGDRVTITCRASQGIRNDLGWYQQKPGKAPKLLIFAASSLQSGVPSRFSGSGSGTDFTLTISNLQPEDFATYYCLQNYNYPLTFGGGTKVEIK
notes: Full chains appear only in embodiments and are not tied to the tested molecule; also called anti-Dectin-1 x anti-Trop-2 bispecific antibody; DR02B.77
Regarding B3, in [1], the “Dectin-1 pathway activation (SEAP secretion), HEK-Blue hDectin-1a cells in the presence of A-431 cells, EC50” value is 0.08 mg/L; the “Dectin-1 pathway activation (SEAP secretion), HEK-Blue hDectin-1a cells in the presence of CHO-K1-hTrop2 cells, EC50” value was 0.05 mg/L; the “Dectin-1 pathway activation (SEAP secretion), HEK-Blue hDectin-1a cells in the presence of NCI-N87 cells, EC50” value came to 0.06 mg/L; the “Dectin-1 pathway activation (SEAP secretion), HEK-Blue hDectin-1a cells in the presence of SKBR3 cells, EC50” value is 0.05 mg/L. In experiment [2], the “Induction of phagocytosis in vitro of A-431 cells by human macrophages, EC50” value turned out to be 0.45 nM; the “Induction of phagocytosis in vitro of NCI-N87 cells by human macrophages, EC50” value was 0.132 nM; the “Induction of phagocytosis in vitro of SKBR3 cells by human macrophages, EC50” value was 0.319 nM. The molecule also gave an EC50 in experiment [3] of 53.2 nM. The midpoint of the response in [4], the EC50, lay at 28 nM. In [5], this molecule displayed an EC50 of 39.5 nM. The EC50 in [6] came out at 7.25 nM. In the experiment with Human Trop-2 ECD protein, this molecule had a Kd of 12.9 nM, a koff of 0.00181 s⁻¹ and a kon of 140000 M⁻¹ s⁻¹.

B4: 2M24 × Trop-2 clone B hG1 (bispecific antibody, V domains shown)
VH 1: B1 VH 1
VL 1: B1 VL 1
VH 2: QVQLQESGPGLVKPSGTLSLTCAVSGGSISSSNWWSWVRQPPGKGLEWIGEIYHDGSTDYFPSLKSRVTISVDKSKNQFSLKLSSVTAADTAVYYCARDNWGFDYWGQGTLVTVSS
VL 2: DIVLTQSPGTLSLSPGERATLSCRASQSVSSSYLAWYQQKPGQAPRLLISGASSRATGIPDRFSGSGSGTDFTLTISRLEPEDFAVYYCQQYGSSHRTFGQGTKVEIK
notes: Full chains appear only in embodiments and are not tied to the tested molecule; also called anti-Dectin-1 x anti-Trop-2 bispecific antibody; DR02B.65
Regarding B4, in experiment [1], the “Dectin-1 pathway activation (SEAP secretion), HEK-Blue hDectin-1a cells in the presence of A-431 cells, EC50” value was found to be 0.04 mg/L; the “Dectin-1 pathway activation (SEAP secretion), HEK-Blue hDectin-1a cells in the presence of CHO-K1-hTrop2 cells, EC50” value was found to be 0.07 mg/L; the “Dectin-1 pathway activation (SEAP secretion), HEK-Blue hDectin-1a cells in the presence of NCI-N87 cells, EC50” value was found to be 0.03 mg/L; the “Dectin-1 pathway activation (SEAP secretion), HEK-Blue hDectin-1a cells in the presence of SKBR3 cells, EC50” value turned out to be 0.04 mg/L. Further, in [2], the “Induction of phagocytosis in vitro of A-431 cells by human macrophages, EC50” value is 0.34 nM; the “Induction of phagocytosis in vitro of NCI-N87 cells by human macrophages, EC50” value was 1.12 nM; the “Induction of phagocytosis in vitro of SKBR3 cells by human macrophages, EC50” value was determined as 0.269 nM. The EC50 in [3] came out at 7.56 nM. Moreover, in experiment [4], the EC50 stood at 24.2 nM. The response in experiment [5] was half-maximal at 17.9 nM (EC50). Besides, a half-maximal response in experiment [6] (EC50) required 4.32 nM. Further, in the experiment with Human Trop-2 ECD protein, binding was put at a Kd of 9.55 nM, the koff stood at 0.000475 s⁻¹ and the kon was 49700 M⁻¹ s⁻¹.

B5: Dectin-1 2M24.124 x Trop-2 clone B hIgG1 (bispecific antibody)
anti-Dectin-1 heavy chain: B1 VH 1 with S24A, I34M, S55E, Q65E, L81M, F94Y, S100T, S102A, Q110C
anti-Dectin-1 light chain: B1 VL 1 with A43C, F49Y, S53D, V75I, S93G, E107K
anti-Trop-2 heavy chain: B4 VH 2
anti-Trop-2 light chain: B4 VL 2
notes: member of group m9; also called 2M24.124xTrop-2 clone B hG1; disulfide-engineered Fab-format bispecific, clone B
As for B5, the “EC50 of SEAP secretion by the hDectin-1 reporter cells (hDec1 Reporter Assay; the Trop-2-expressing cell line is not named)” value in experiment [7] worked out at 0.61 nM. The “EC50 (read off the curve)” value in experiment [8] was approximately 7 nM; in experiment [9] it was approximately 0.7 nM.

Source of the values: US20260146093A1 (DREN BIO MANAGEMENT, published 2026).
